Earlier results in paper PMC8471248.
pKd: −log10 of the molar value.

Target: cell-surface GRP78 (Homo sapiens) (UniProt P11021)
UniProt P11021, sequence (P11021 19-654): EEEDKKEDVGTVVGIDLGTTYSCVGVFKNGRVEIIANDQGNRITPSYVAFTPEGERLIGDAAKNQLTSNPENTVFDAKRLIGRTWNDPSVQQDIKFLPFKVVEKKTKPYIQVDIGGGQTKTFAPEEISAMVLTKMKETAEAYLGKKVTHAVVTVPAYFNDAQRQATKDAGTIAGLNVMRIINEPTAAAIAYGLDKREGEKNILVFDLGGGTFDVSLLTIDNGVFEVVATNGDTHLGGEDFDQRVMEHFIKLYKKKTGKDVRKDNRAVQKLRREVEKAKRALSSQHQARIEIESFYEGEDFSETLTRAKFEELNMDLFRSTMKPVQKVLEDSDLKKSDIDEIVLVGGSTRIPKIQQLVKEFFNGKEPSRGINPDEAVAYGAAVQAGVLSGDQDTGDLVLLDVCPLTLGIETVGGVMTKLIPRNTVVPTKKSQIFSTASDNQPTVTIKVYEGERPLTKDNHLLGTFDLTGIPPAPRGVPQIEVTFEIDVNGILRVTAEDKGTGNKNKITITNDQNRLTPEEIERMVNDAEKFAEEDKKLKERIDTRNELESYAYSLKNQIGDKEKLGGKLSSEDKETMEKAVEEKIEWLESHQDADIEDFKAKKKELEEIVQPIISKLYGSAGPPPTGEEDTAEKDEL

- pKd: 10.00
Substance: Activated alpha 2-macroglobulin (from UniProt P01023)
